Results published in publication PMC3466378 (Journal of immunology (Baltimore, Md. : 1950), 2012).
Ends that are not written are not given here.

Tests used:
HLA-DR1 = HLA-DR1 (Homo sapiens, UniProt P01903+P01911, A100R/D57E/F55L/F60I/F76Y/I96L/L162R/M171V/P40L/Q125E/R42F/V115G/Y59C); assay: biochemical; format: binding
[1] = target: Soluble recombinant HLA-DR1 (HLA DRB1*0101) (human); assay: fluorescence polarisation
[2] = target: Soluble recombinant HLA-DR1 (HLA DRB1*0101) (human); assay: ELISA

Compound	IC50 (HLA-DR1) [nM]	IC50 [1] [nM]	t1/2in [2] [h]	t1/2DM [2] [h]
CC[C@H](C)[C@H](NC(=O)[C@H](CCCNC(=N)N)NC(=O)[C@H](CC(=O)O)NC(=O)[C@@H](NC(=O)[C@H](CCCCN)NC(=O)[C@@H](NC(=O)[C@H](CO)NC(=O)[C@H](CCC(=O)O)NC(=O)[C@@H](NC(=O)[C@H](Cc1ccc(O)cc1)NC(=O)[C@H](CCSC)NC(=O)[C@H](Cc1ccccc1)NC(=O)[C@H](CO)NC(=O)[C@H](Cc1ccccc1)NC(=O)[C@@H](N)CCCCN)[C@@H](C)CC)[C@@H](C)CC)C(C)C)C(=O)O [A20R (214–228)]	192			
CC[C@H](C)[C@H](NC(=O)[C@H](Cc1ccccc1)NC(=O)[C@H](CC(C)C)NC(=O)[C@H](CC(C)C)NC(=O)[C@H](CO)NC(=O)[C@@H](NC(=O)[C@H](C)N)C(C)C)C(=O)N[C@@H](CCC(N)=O)C(=O)NCC(=O)N[C@@H](Cc1ccc(O)cc1)C(=O)N[C@@H](CO)C(=O)N[C@H](C(=O)N[C@@H](Cc1ccc(O)cc1)C(=O)N[C@@H](CCC(=O)O)C(=O)N[C@@H](CC(N)=O)C(=O)O)[C@@H](C)CC [A28Ls (15–29)]	212			
CC[C@H](C)[C@H](NC(=O)CNC(=O)[C@H](CO)NC(=O)[C@H](CCC(N)=O)NC(=O)[C@H](CC(N)=O)NC(=O)[C@@H](NC(=O)[C@H](Cc1ccccc1)NC(=O)[C@@H]1CCCN1C(=O)[C@@H](N)CCC(=O)O)C(C)C)C(=O)N[C@@H](CCC(=O)O)C(=O)N[C@H](C(=O)N[C@@H](CC(C)C)C(=O)N[C@@H](CC(C)C)C(=O)O)[C@@H](C)CC [D11L (386–398)]	106			
CC[C@H](C)[C@H](NC(=O)[C@H](CO)NC(=O)[C@H](CC(N)=O)NC(=O)[C@H](Cc1ccccc1)NC(=O)[C@@H](NC(=O)[C@@H](N)CC(C)C)C(C)C)C(=O)N[C@@H](CO)C(=O)N[C@@H](C)C(=O)N[C@@H](CCCNC(=N)N)C(=O)N[C@@H](C)C(=O)N[C@@H](CC(C)C)C(=O)N[C@@H](CCCCN)C(=O)N[C@@H](C)C(=O)N[C@@H](Cc1ccc(O)cc1)C(=O)N[C@@H](Cc1ccccc1)C(=O)O [I1L (8–22)]	15			
CC[C@H](C)[C@H](NC(=O)[C@H](C)NC(=O)[C@H](CC(C)C)NC(=O)[C@H](CO)NC(=O)[C@H](CC(N)=O)NC(=O)[C@H](CC(C)C)NC(=O)[C@H](Cc1ccccc1)NC(=O)[C@H](CCCNC(=N)N)NC(=O)[C@H](CCSC)NC(=O)[C@H](CC(=O)O)NC(=O)[C@@H](N)Cc1ccccc1)C(=O)N[C@@H](Cc1c[nH]cn1)C(=O)N[C@@H](CCC(=O)O)C(=O)O [I7L (193–205)]	150			
CC[C@H](C)[C@H](NC(=O)[C@@H]1CCCN1C(=O)[C@H](CO)NC(=O)CNC(=O)[C@H](CC(=O)O)NC(=O)[C@H](CC(C)C)NC(=O)[C@@H](NC(=O)[C@H](CCCCN)NC(=O)[C@H](Cc1ccccc1)NC(=O)CNC(=O)[C@H](CC(C)C)NC(=O)[C@@H](N)CO)C(C)C)C(=O)N[C@@H](CO)C(=O)N[C@@H](CC(C)C)C(=O)N[C@@H](CCCNC(=N)N)C(=O)O [I8R (243–257)]	17			
A28Ls (15–29) (peptide)		212	213	
A48Rs (41–55) (peptide)		44	136	115
D5R (315–329) (peptide)			276	
D6R (156–170) (peptide)		4	997	219
F1L(202–214) (peptide)			413	117
GRYLVLKAVKVSD [F17R(19–31)]	37			
HPDYAILAARIAVSN [I4L (71–85)]	62			
I1L (8–22) (peptide)		15	155	
I4L (71–85) (peptide)			278	
L1R (191–205) (peptide)		7360		
TTQSMNIMESIPANT [A48Rs (41–55)]	44			
